Values of other authors as cited in paper PMC7866529.
Read-outs that look alike come from different tables or passages of the source.

How the values were obtained:
[1] = target: S100B (Homo sapiens) (UniProt P04271)
[2] = target: S100B (Homo sapiens) (UniProt P04271); remark: listed apart in the source

Row | Substance | Kd [1] [nM] | Kd [2] [nM]
1 | TRTK12 | 260 | –
2 | S100B (from UniProt P04271) | – | < 0.5
